Reference: paper PMC9482650, “Quantitative fragmentomics allow affinity mapping of interactomes” (Nature Communications, 2022)

Biological target: CARD14, Q9BXL6
Assay: holdup assay
Set-up: key: below the threshold = too weak to quantify, mostly under pKd 3.1 to 4
Conditions: plain residues with an end cap or a label only (N-terminal biotin on a linker: ttds)

Sequence of CARD14, Q9BXL6 (Q9BXL6 558-663): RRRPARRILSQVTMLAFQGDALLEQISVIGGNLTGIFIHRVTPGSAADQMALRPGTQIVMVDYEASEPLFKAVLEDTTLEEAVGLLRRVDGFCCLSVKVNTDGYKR

pKd	Binder
below the threshold	PKTPPTDTSV [KIR3DL3, Q8N743]
below the threshold	STLTIFETAL [ABCC4, O15439]
below the threshold	QSARYRDTEL [TJP2, Q9UDY2]

Biological target: T1, NHERF1_1, O14745
T1 sequence (O14745 9-104, limits assumed, looked up): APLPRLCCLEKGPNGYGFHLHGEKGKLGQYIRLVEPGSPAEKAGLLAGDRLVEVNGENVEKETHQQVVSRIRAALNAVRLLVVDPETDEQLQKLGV
Assay: holdup assay
Set-up: key: below the threshold = too weak to quantify, mostly under pKd 3.1 to 4
Conditions: plain residues with an end cap or a label only (N-terminal biotin on a linker: ttds)

pKd	Binder
below the threshold	PKTPPTDTSV [KIR3DL3, Q8N743]
5.36	STLTIFETAL [ABCC4, O15439]
below the threshold	QSARYRDTEL [TJP2, Q9UDY2]

Biological target: T2, MPDZ_6, O75970
T2 sequence (O75970 1003-1099, limits assumed, looked up): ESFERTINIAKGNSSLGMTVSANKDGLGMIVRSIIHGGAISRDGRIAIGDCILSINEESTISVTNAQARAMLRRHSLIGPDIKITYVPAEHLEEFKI
Assay: holdup assay
Set-up: key: below the threshold = too weak to quantify, mostly under pKd 3.1 to 4
Conditions: plain residues with an end cap or a label only (N-terminal biotin on a linker: ttds)

pKd	Binder
below the threshold	PKTPPTDTSV [KIR3DL3, Q8N743]
below the threshold	STLTIFETAL [ABCC4, O15439]
below the threshold	QSARYRDTEL [TJP2, Q9UDY2]

Biological target: MAGI3_6, Q5TCQ9
Assay: holdup assay
Set-up: key: below the threshold = too weak to quantify, mostly under pKd 3.1 to 4
Conditions: plain residues with an end cap or a label only (N-terminal biotin on a linker: ttds)

Sequence of MAGI3_6, Q5TCQ9 (Q5TCQ9 1014-1103): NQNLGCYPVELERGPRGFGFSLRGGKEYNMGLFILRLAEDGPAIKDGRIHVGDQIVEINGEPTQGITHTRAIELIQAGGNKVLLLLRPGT

pKd	Binder
below the threshold	PKTPPTDTSV [KIR3DL3, Q8N743]
4.21	STLTIFETAL [ABCC4, O15439]
4.72	QSARYRDTEL [TJP2, Q9UDY2]

Biological target: Q13368
Assay: holdup assay
Set-up: key: below the threshold = too weak to quantify, mostly under pKd 3.1 to 4
Conditions: plain residues with an end cap or a label only (N-terminal biotin on a linker: ttds)

pKd	Binder
below the threshold	PKTPPTDTSV [KIR3DL3, Q8N743]
below the threshold	STLTIFETAL [ABCC4, O15439]
below the threshold	QSARYRDTEL [TJP2, Q9UDY2]

Biological target: LIMK1, P53667
Assay: holdup assay
Set-up: key: below the threshold = too weak to quantify, mostly under pKd 3.1 to 4
Conditions: plain residues with an end cap or a label only (N-terminal biotin on a linker: ttds)

Sequence of LIMK1, P53667 (P53667 155-268): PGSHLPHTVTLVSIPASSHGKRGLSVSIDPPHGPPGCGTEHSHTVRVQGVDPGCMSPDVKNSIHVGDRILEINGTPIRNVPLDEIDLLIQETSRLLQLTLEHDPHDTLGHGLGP

pKd	Binder
below the threshold	PKTPPTDTSV [KIR3DL3, Q8N743]
4.24	STLTIFETAL [ABCC4, O15439]
below the threshold	QSARYRDTEL [TJP2, Q9UDY2]

Biological target: T3, PDZD2_4, O15018
T3 sequence (O15018 723-823, limits assumed, looked up): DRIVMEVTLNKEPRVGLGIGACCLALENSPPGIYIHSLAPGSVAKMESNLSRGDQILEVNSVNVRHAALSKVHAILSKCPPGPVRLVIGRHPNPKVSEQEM
Assay: holdup assay
Set-up: key: below the threshold = too weak to quantify, mostly under pKd 3.1 to 4
Conditions: plain residues with an end cap or a label only (N-terminal biotin on a linker: ttds)

pKd	Binder
below the threshold	PKTPPTDTSV [KIR3DL3, Q8N743]
below the threshold	STLTIFETAL [ABCC4, O15439]
below the threshold	QSARYRDTEL [TJP2, Q9UDY2]

Biological target: T4, SYNPO2L, Q9H987
T4 sequence (Q9H987 1-98, limits assumed, looked up): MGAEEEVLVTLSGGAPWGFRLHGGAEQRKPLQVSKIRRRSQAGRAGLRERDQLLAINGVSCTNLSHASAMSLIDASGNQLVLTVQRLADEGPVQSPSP
Assay: holdup assay
Set-up: key: below the threshold = too weak to quantify, mostly under pKd 3.1 to 4
Conditions: plain residues with an end cap or a label only (N-terminal biotin on a linker: ttds)

pKd	Binder
below the threshold	PKTPPTDTSV [KIR3DL3, Q8N743]
below the threshold	STLTIFETAL [ABCC4, O15439]
below the threshold	QSARYRDTEL [TJP2, Q9UDY2]

Biological target: T5, SHROOM4, Q9ULL8
T5 sequence (Q9ULL8 5-102, limits assumed, looked up): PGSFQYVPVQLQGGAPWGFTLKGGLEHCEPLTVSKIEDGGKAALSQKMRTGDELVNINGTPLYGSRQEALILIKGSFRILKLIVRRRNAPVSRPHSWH
Assay: holdup assay
Set-up: key: below the threshold = too weak to quantify, mostly under pKd 3.1 to 4
Conditions: plain residues with an end cap or a label only (N-terminal biotin on a linker: ttds)

pKd	Binder
below the threshold	PKTPPTDTSV [KIR3DL3, Q8N743]
below the threshold	STLTIFETAL [ABCC4, O15439]
below the threshold	QSARYRDTEL [TJP2, Q9UDY2]

Biological target: T6, MPDZ_11, O75970
T6 sequence (O75970 1720-1817, limits assumed, looked up): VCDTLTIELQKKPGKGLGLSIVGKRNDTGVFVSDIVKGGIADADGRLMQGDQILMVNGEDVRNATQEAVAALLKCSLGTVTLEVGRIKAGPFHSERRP
Assay: holdup assay
Set-up: key: below the threshold = too weak to quantify, mostly under pKd 3.1 to 4
Conditions: plain residues with an end cap or a label only (N-terminal biotin on a linker: ttds)

pKd	Binder
below the threshold	PKTPPTDTSV [KIR3DL3, Q8N743]
below the threshold	STLTIFETAL [ABCC4, O15439]
below the threshold	QSARYRDTEL [TJP2, Q9UDY2]

Biological target: MAST3, O60307
Assay: holdup assay
Set-up: key: below the threshold = too weak to quantify, mostly under pKd 3.1 to 4
Conditions: plain residues with an end cap or a label only (N-terminal biotin on a linker: ttds)

Sequence of MAST3, O60307 (O60307 945-1048): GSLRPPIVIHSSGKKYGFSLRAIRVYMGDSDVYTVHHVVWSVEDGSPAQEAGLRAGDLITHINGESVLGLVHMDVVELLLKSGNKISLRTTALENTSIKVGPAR

pKd	Binder
below the threshold	PKTPPTDTSV [KIR3DL3, Q8N743]
4.29	STLTIFETAL [ABCC4, O15439]
below the threshold	QSARYRDTEL [TJP2, Q9UDY2]

Biological target: T7, MPDZ_3, O75970
T7 sequence (O75970 372-473, limits assumed, looked up): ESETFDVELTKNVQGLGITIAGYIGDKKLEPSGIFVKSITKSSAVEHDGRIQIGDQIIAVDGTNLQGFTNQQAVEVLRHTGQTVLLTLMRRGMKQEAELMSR
Assay: holdup assay
Set-up: key: below the threshold = too weak to quantify, mostly under pKd 3.1 to 4
Conditions: plain residues with an end cap or a label only (N-terminal biotin on a linker: ttds)

pKd	Binder
below the threshold	PKTPPTDTSV [KIR3DL3, Q8N743]
4.18	STLTIFETAL [ABCC4, O15439]
below the threshold	QSARYRDTEL [TJP2, Q9UDY2]

Biological target: TJP1_1, Q07157
Assay: holdup assay
Set-up: key: below the threshold = too weak to quantify, mostly under pKd 3.1 to 4
Conditions: plain residues with an end cap or a label only (N-terminal biotin on a linker: ttds)

Sequence of TJP1_1, Q07157 (Q07157 18-120): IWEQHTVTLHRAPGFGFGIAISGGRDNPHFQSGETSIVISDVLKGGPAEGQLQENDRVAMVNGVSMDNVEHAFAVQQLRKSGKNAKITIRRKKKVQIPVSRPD

pKd	Binder
below the threshold	PKTPPTDTSV [KIR3DL3, Q8N743]
below the threshold	STLTIFETAL [ABCC4, O15439]
below the threshold	QSARYRDTEL [TJP2, Q9UDY2]

Biological target: MAGI1_4, Q96QZ7
Assay: holdup assay
Set-up: key: below the threshold = too weak to quantify, mostly under pKd 3.1 to 4
Conditions: plain residues with an end cap or a label only (N-terminal biotin on a linker: ttds)

Sequence of MAGI1_4, Q96QZ7 (Q96QZ7 other isoform, or with tags, fused parts or gaps): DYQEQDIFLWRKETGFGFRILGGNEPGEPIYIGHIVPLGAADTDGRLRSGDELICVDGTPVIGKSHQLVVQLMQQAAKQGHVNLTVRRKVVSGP

pKd	Binder
below the threshold	PKTPPTDTSV [KIR3DL3, Q8N743]
below the threshold	STLTIFETAL [ABCC4, O15439]
below the threshold	QSARYRDTEL [TJP2, Q9UDY2]

Biological target: PREX1_1, Q8TCU6
Assay: holdup assay
Set-up: key: below the threshold = too weak to quantify, mostly under pKd 3.1 to 4
Conditions: plain residues with an end cap or a label only (N-terminal biotin on a linker: ttds)

Sequence of PREX1_1, Q8TCU6 (Q8TCU6 608-718): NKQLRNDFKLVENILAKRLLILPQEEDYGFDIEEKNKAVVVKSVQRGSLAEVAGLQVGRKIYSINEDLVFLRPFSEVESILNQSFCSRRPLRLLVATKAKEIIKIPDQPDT

pKd	Binder
below the threshold	PKTPPTDTSV [KIR3DL3, Q8N743]
below the threshold	STLTIFETAL [ABCC4, O15439]
below the threshold	QSARYRDTEL [TJP2, Q9UDY2]

Biological target: T8, LNX2_4, Q8N448
T8 sequence (Q8N448 595-690, limits assumed, looked up): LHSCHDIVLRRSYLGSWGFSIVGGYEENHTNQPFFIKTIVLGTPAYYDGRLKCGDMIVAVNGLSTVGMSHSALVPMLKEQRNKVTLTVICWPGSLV
Assay: holdup assay
Set-up: key: below the threshold = too weak to quantify, mostly under pKd 3.1 to 4
Conditions: plain residues with an end cap or a label only (N-terminal biotin on a linker: ttds)

pKd	Binder
below the threshold	PKTPPTDTSV [KIR3DL3, Q8N743]
below the threshold	STLTIFETAL [ABCC4, O15439]
below the threshold	QSARYRDTEL [TJP2, Q9UDY2]

Biological target: T9, PDZD2_3, O15018
T9 sequence (O15018 581-682, limits assumed, looked up): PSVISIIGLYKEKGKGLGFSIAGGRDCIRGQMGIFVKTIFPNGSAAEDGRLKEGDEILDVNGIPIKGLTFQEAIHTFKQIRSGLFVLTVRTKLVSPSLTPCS
Assay: holdup assay
Set-up: key: below the threshold = too weak to quantify, mostly under pKd 3.1 to 4
Conditions: plain residues with an end cap or a label only (N-terminal biotin on a linker: ttds)

pKd	Binder
4.08	PKTPPTDTSV [KIR3DL3, Q8N743]
4.32	STLTIFETAL [ABCC4, O15439]
below the threshold	QSARYRDTEL [TJP2, Q9UDY2]

Biological target: O00560
Assay: holdup assay
Set-up: key: below the threshold = too weak to quantify, mostly under pKd 3.1 to 4
Conditions: plain residues with an end cap or a label only (N-terminal biotin on a linker: ttds)

pKd	Binder
below the threshold	PKTPPTDTSV [KIR3DL3, Q8N743]
below the threshold	STLTIFETAL [ABCC4, O15439]
below the threshold	QSARYRDTEL [TJP2, Q9UDY2]

Biological target: CNKSR3, Q6P9H4
Assay: holdup assay
Set-up: key: below the threshold = too weak to quantify, mostly under pKd 3.1 to 4
Conditions: plain residues with an end cap or a label only (N-terminal biotin on a linker: ttds)

Sequence of CNKSR3, Q6P9H4 (Q6P9H4 203-303): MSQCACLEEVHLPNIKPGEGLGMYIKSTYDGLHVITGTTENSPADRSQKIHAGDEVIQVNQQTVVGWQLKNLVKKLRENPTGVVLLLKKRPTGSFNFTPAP

pKd	Binder
below the threshold	PKTPPTDTSV [KIR3DL3, Q8N743]
below the threshold	STLTIFETAL [ABCC4, O15439]
below the threshold	QSARYRDTEL [TJP2, Q9UDY2]

Biological target: PDZRN4_2, Q6ZMN7
Assay: holdup assay
Set-up: key: below the threshold = too weak to quantify, mostly under pKd 3.1 to 4
Conditions: plain residues with an end cap or a label only (N-terminal biotin on a linker: ttds)

Sequence of PDZRN4_2, Q6ZMN7 (Q6ZMN7 389-498): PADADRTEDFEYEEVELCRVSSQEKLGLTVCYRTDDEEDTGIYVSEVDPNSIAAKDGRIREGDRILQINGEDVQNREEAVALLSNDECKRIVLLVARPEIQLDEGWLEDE

pKd	Binder
below the threshold	PKTPPTDTSV [KIR3DL3, Q8N743]
below the threshold	STLTIFETAL [ABCC4, O15439]
below the threshold	QSARYRDTEL [TJP2, Q9UDY2]

Biological target: T10, PDLIM3, Q53GG5
T10 sequence (Q53GG5 1-94, limits assumed, looked up): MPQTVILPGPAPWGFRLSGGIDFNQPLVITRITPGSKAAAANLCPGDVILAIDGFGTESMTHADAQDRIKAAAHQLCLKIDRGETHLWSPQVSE
Assay: holdup assay
Set-up: key: below the threshold = too weak to quantify, mostly under pKd 3.1 to 4
Conditions: plain residues with an end cap or a label only (N-terminal biotin on a linker: ttds)

pKd	Binder
below the threshold	PKTPPTDTSV [KIR3DL3, Q8N743]
4.11	STLTIFETAL [ABCC4, O15439]
below the threshold	QSARYRDTEL [TJP2, Q9UDY2]

Biological target: Q12923
Assay: holdup assay
Set-up: key: below the threshold = too weak to quantify, mostly under pKd 3.1 to 4
Conditions: plain residues with an end cap or a label only (N-terminal biotin on a linker: ttds)

pKd	Binder
below the threshold	PKTPPTDTSV [KIR3DL3, Q8N743]
below the threshold	STLTIFETAL [ABCC4, O15439]
below the threshold	QSARYRDTEL [TJP2, Q9UDY2]

Biological target: LMO7, Q8WWI1
Assay: holdup assay
Set-up: key: below the threshold = too weak to quantify, mostly under pKd 3.1 to 4
Conditions: plain residues with an end cap or a label only (N-terminal biotin on a linker: ttds)

Sequence of LMO7, Q8WWI1 (Q8WWI1 1037-1138): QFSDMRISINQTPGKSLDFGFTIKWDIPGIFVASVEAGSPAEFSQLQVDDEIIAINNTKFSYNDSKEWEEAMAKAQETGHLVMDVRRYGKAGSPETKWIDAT

pKd	Binder
below the threshold	PKTPPTDTSV [KIR3DL3, Q8N743]
below the threshold	STLTIFETAL [ABCC4, O15439]
below the threshold	QSARYRDTEL [TJP2, Q9UDY2]

Biological target: T11, PARD6G, Q9BYG4
T11 sequence (Q9BYG4 153-261, limits assumed, looked up): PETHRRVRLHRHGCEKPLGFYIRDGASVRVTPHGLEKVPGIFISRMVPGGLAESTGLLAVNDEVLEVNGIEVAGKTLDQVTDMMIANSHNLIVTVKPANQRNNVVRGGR
Assay: holdup assay
Set-up: key: below the threshold = too weak to quantify, mostly under pKd 3.1 to 4
Conditions: plain residues with an end cap or a label only (N-terminal biotin on a linker: ttds)

pKd	Binder
below the threshold	PKTPPTDTSV [KIR3DL3, Q8N743]
below the threshold	STLTIFETAL [ABCC4, O15439]
below the threshold	QSARYRDTEL [TJP2, Q9UDY2]

Biological target: MAGI3_3, Q5TCQ9
Assay: holdup assay
Set-up: key: below the threshold = too weak to quantify, mostly under pKd 3.1 to 4
Conditions: plain residues with an end cap or a label only (N-terminal biotin on a linker: ttds)

Sequence of MAGI3_3, Q5TCQ9 (Q5TCQ9 572-655): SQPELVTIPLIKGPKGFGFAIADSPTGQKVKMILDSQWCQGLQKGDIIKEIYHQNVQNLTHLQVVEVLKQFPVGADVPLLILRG

pKd	Binder
below the threshold	PKTPPTDTSV [KIR3DL3, Q8N743]
below the threshold	STLTIFETAL [ABCC4, O15439]
below the threshold	QSARYRDTEL [TJP2, Q9UDY2]

Biological target: T12, SHANK2, Q9UPX8
T12 sequence (Q9UPX8 621-730, limits assumed, looked up): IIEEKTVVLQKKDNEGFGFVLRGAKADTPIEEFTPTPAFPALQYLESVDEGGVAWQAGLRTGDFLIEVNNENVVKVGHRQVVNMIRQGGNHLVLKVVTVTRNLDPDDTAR
Assay: holdup assay
Set-up: key: below the threshold = too weak to quantify, mostly under pKd 3.1 to 4
Conditions: plain residues with an end cap or a label only (N-terminal biotin on a linker: ttds)

pKd	Binder
below the threshold	PKTPPTDTSV [KIR3DL3, Q8N743]
4.85	STLTIFETAL [ABCC4, O15439]
below the threshold	QSARYRDTEL [TJP2, Q9UDY2]
